Test results: the supplement of paper PMC7877785
± gives the uncertainty stated by the source.

Assay: self-splicing fitness, log relative to wild type (ln ratio); higher = more splicing; Tetrahymena group I intron in knt gene, E. coli kanamycin selection, DiMSum; sequences stand for … in CUCUCU…GGAGGGAAAAGUUAUCAGGCAUGCACCUGGUAGCUAGUCUUUAAACCAAUAGAUUGCAUCGGUUUAAAAGGCAAGACCGUCAAAUUGCGGGAAAGGGGUCAACAGCCGUUCAGUACCAAGUCUCAGGGGAAACUUUGAGAUGGCCUUGCAAAGGGUAUGGUAAUAAGCUGACGGACAUGGUCCUAACCACGCAGCCAAGUCCUAAGUCAACAGAUCUUCUGUUGAUAUGGAUGCAGUUCACAGACUAAAUGUCGGUCGGGGAAGAUGUAUUCUUCUCAUAAGAUAUAGUCGGACCUCUCCUUAAUGGGAGCUAGCGGAUGAAGUGAUGCAACACUGGAGCCGCUGGGAACUAAUUUGUAUGCGAAAGUAUAUUGAUUAGUUUUGGAGUACUCGUGGUCG
In short: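 Fitness was computed with DiMSum as the error-weighted combination of replicate fold changes, kanamycin versus none, each normalised to wild type. The library randomised all eight intron nucleotides of the P1ex region, with the intron placed in the knt kanamycin-resistance gene on pET-22b(+) in E. coli BL21(DE3). Six replicate transformations were grown overnight at 37°C or 30°C on LB agar with or without 25 μg/mL kanamycin, plus 100 μg/mL carbenicillin, 50 μM IPTG and 0.2% rhamnose. Pooled colonies were amplicon-sequenced on an Illumina HiSeq 2500.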

Sequence | self-splicing fitness (ln) (30 °C) | self-splicing fitness (ln) (37 °C)
CAGAAGCAAUAUUACGAGUC | -3.79 ± 0.48 | -2.16 ± 0.32
CAGAAGCAAUAUUACGAUCA | -2.19 ± 0.14 | -1.84 ± 0.17
CAGAAGCAAUAUUACGCAGG | -2.75 ± 0.15 | -1.73 ± 0.13
CAGAAGCAAUAUUACGCCAA | -3.35 ± 0.38 | –
CAGAAGCAAUAUUACGCGGC | -0.924 ± 0.15 | –
CAGAAGCAAUAUUACGCUAA | -4.46 ± 0.42 | -1.97 ± 0.26
CAGAAGCAAUAUUACGCUGC | – | -2.34 ± 0.49
CAGAAGCAAUAUUACGGACG | -0.743 ± 0.092 | -0.739 ± 0.12
CAGAAGCAAUAUUACGGGAU | -3.18 ± 0.17 | -2.9 ± 0.2
CAGAAGCAAUAUUACGGGGG | -3.09 ± 0.16 | -2.75 ± 0.21
CAGAAGCAAUAUUACGGUGG | -1.26 ± 0.067 | -1.12 ± 0.079
CAGAAGCAAUAUUACGGUUA | -2.25 ± 0.13 | -1.72 ± 0.12
CAGAAGCAAUAUUACGUAGA | -3.54 ± 0.1 | -0.762 ± 0.075
CAGAAGCAAUAUUACGUGUA | -3.81 ± 0.17 | -1.25 ± 0.094
CAGAAGCAAUAUUACGUUCC | – | -1.75 ± 0.47
CAGCAGCAAUAUUACGAACG | -0.451 ± 0.073 | 0.304 ± 0.11
CAGCAGCAAUAUUACGACCA | -1.88 ± 0.19 | -1.22 ± 0.18
CAGCAGCAAUAUUACGAGGA | -2.63 ± 0.2 | -2.42 ± 0.23
CAGCAGCAAUAUUACGCACA | -0.847 ± 0.088 | -0.607 ± 0.093
CAGCAGCAAUAUUACGCAUA | -1.81 ± 0.14 | -1.43 ± 0.17
CAGCAGCAAUAUUACGCCCA | -1.98 ± 0.14 | -0.0298 ± 0.12
CAGCAGCAAUAUUACGCCCC | -1.87 ± 0.48 | -0.533 ± 0.43
CAGCAGCAAUAUUACGCCUU | -0.761 ± 0.097 | -0.274 ± 0.1
CAGCAGCAAUAUUACGCGAA | -2.55 ± 0.13 | -1.82 ± 0.15
CAGCAGCAAUAUUACGCGUG | -3.2 ± 0.18 | -1.92 ± 0.15
CAGCAGCAAUAUUACGGCCU | -0.922 ± 0.1 | -0.208 ± 0.12

Sequence | self-splicing fitness (ln) (30 °C) | self-splicing fitness (ln) (37 °C)
CAGCAGCAAUAUUACGGCUG | -4.48 ± 0.25 | -1.82 ± 0.19
CAGCAGCAAUAUUACGGGCU | -3.74 ± 0.17 | -2.51 ± 0.16
CAGCAGCAAUAUUACGGGGG | -1.63 ± 0.076 | -1.54 ± 0.11
CAGCAGCAAUAUUACGGUGU | -3.61 ± 0.15 | -2.72 ± 0.17
CAGCAGCAAUAUUACGUAAG | -0.365 ± 0.046 | 0.0316 ± 0.067
CAGCAGCAAUAUUACGUACG | -0.121 ± 0.08 | 0.866 ± 0.11
CAGCAGCAAUAUUACGUAGC | -4.02 ± 0.28 | -2.94 ± 0.26
CAGCAGCAAUAUUACGUCCG | 0.0818 ± 0.076 | 0.283 ± 0.086
CAGCAGCAAUAUUACGUCUU | -0.473 ± 0.053 | 0.3 ± 0.07
CAGCAGCAAUAUUACGUGCC | -3.2 ± 0.17 | -2.05 ± 0.21
CAGCAGCAAUAUUACGUUAG | -1.17 ± 0.063 | -0.421 ± 0.078
CAGGAGCAAUAUUACGAACU | -3.14 ± 0.34 | -3.19 ± 0.32
CAGGAGCAAUAUUACGACGU | -3.17 ± 0.16 | -2.13 ± 0.2
CAGGAGCAAUAUUACGAUGU | -4 ± 0.21 | -2.91 ± 0.17
CAGGAGCAAUAUUACGCAAU | – | -1.35 ± 0.27
CAGGAGCAAUAUUACGCACG | -1.71 ± 0.088 | 0.544 ± 0.15
CAGGAGCAAUAUUACGCGCG | -1.45 ± 0.14 | -0.0818 ± 0.14
CAGGAGCAAUAUUACGCUAA | -3.29 ± 0.5 | -1.19 ± 0.41
CAGGAGCAAUAUUACGCUAC | -1.78 ± 0.4 | –
CAGGAGCAAUAUUACGCUAU | -3.39 ± 0.4 | -2.39 ± 0.24
CAGGAGCAAUAUUACGGAAA | -2.58 ± 0.14 | -2.59 ± 0.23
CAGGAGCAAUAUUACGGAAU | -2.62 ± 0.29 | -2.58 ± 0.39
CAGGAGCAAUAUUACGGAGU | -2.74 ± 0.17 | -2.21 ± 0.25
CAGGAGCAAUAUUACGGAUC | -4.29 ± 0.23 | -3.84 ± 0.34
CAGGAGCAAUAUUACGGAUG | -2.46 ± 0.13 | -2.02 ± 0.17
CAGGAGCAAUAUUACGGCGC | -3.61 ± 0.36 | -3.31 ± 0.16

Sequence | self-splicing fitness (ln) (30 °C) | self-splicing fitness (ln) (37 °C)
CAGGAGCAAUAUUACGGGCG | -0.762 ± 0.099 | 0.0758 ± 0.14
CAGGAGCAAUAUUACGGUCA | -2.39 ± 0.3 | -1.56 ± 0.32
CAGGAGCAAUAUUACGUAGU | -3.42 ± 0.17 | -1.55 ± 0.13
CAGGAGCAAUAUUACGUCAA | -3.36 ± 0.2 | -3.44 ± 0.33
CAGGAGCAAUAUUACGUCUC | – | -3.07 ± 0.3
CAGGAGCAAUAUUACGUGUC | -3.59 ± 0.21 | -3.03 ± 0.18
CAGGAGCAAUAUUACGUUCG | -0.032 ± 0.12 | 0.338 ± 0.15
CAGGAGCAAUAUUACGUUGA | -3.22 ± 0.37 | -3.85 ± 0.42
CAGGAGCAAUAUUACGUUUA | -3.29 ± 0.15 | -2.44 ± 0.15
CAGUAGCAAUAUUACGAAGU | -0.925 ± 0.18 | -1.82 ± 0.27
CAGUAGCAAUAUUACGACAU | -3.226 ± 0.023 | -1.83 ± 0.036
CAGUAGCAAUAUUACGAGCA | -2.59 ± 0.3 | -2.3 ± 0.27
CAGUAGCAAUAUUACGAUAU | -2.7 ± 0.2 | -1.88 ± 0.21
CAGUAGCAAUAUUACGAUCU | -1.52 ± 0.15 | -1.15 ± 0.19
CAGUAGCAAUAUUACGAUUG | -1.73 ± 0.083 | -0.648 ± 0.11
CAGUAGCAAUAUUACGCAAU | -1.7 ± 0.39 | –
CAGUAGCAAUAUUACGCACU | -2.19 ± 0.18 | -1.34 ± 0.17
CAGUAGCAAUAUUACGCAUU | -1.49 ± 0.18 | -2.5 ± 0.22
CAGUAGCAAUAUUACGCCUG | -2.42 ± 0.25 | -2.46 ± 0.44
CAGUAGCAAUAUUACGCGUU | -2.21 ± 0.23 | -1.64 ± 0.23
CAGUAGCAAUAUUACGCUCG | -0.354 ± 0.12 | -0.439 ± 0.17
CAGUAGCAAUAUUACGCUUA | -0.683 ± 0.21 | -0.832 ± 0.19
CAGUAGCAAUAUUACGGAGG | -1.61 ± 0.094 | -0.514 ± 0.12
CAGUAGCAAUAUUACGGAGU | -3.34 ± 0.36 | -2.67 ± 0.26
CAGUAGCAAUAUUACGGCCU | -3.02 ± 0.2 | -1.67 ± 0.17
CAGUAGCAAUAUUACGGCGG | -0.246 ± 0.081 | -0.627 ± 0.091
